Test results from US20040166543A1 (Dana-Farber, published 2004).

Biological target: T1, MUC1 (full-length wild-type DF3/MUC1 glycoprotein) (human, UniProt P15941 24-1255)
T1 construct: whole, on cells; One entry for endogenous and transfected wild-type MUC1; Co-immunoprecipitated from NP-40 lysates with mAb DF3; also called wild-type MUC1
Assay: co-IP from ZR-75-1 lysate: anti-MUC1 IP, anti-PKCµ blot (FIG. 13B)

B1: PKCµ (protein kinase Cµ), endogenous in ZR-75-1 cells (enzyme, human, UniProt Q15139 1-912, looked up)
chain: MSAPPVLRPPSPLLPVAAAAAAAAAALVPGSGPGPAPFLAPVAAPVGGISFHLQIGLSREPVLLLQDSSGDYSLAHVREMACSIVDQKFPECGFYGMYDKILLFRHDPTSENILQLVKAASDIQEGDLIEVVLSASATFEDFQIRPHALFVHSYRAPAFCDHCGEMLWGLVRQGLKCEGCGLNYHKRCAFKIPNNCSGVRRRRLSNVSLTGVSTIRTSSAELSTSAPDEPLLQKSPSESFIGREKRSNSQSYIGRPIHLDKILMSKVKVPHTFVIHSYTRPTVCQYCKKLLKGLFRQGLQCKDCRFNCHKRCAPKVPNNCLGEVTINGDLLSPGAESDVVMEEGSDDNDSERNSGLMDDMEEAMVQDAEMAMAECQNDSGEMQDPDPDHEDANRTISPSTSNNIPLMRVVQSVKHTKRKSSTVMKEGWMVHYTSKDTLRKRHYWRLDSKCITLFQNDTGSRYYKEIPLSEILSLEPVKTSALIPNGANPHCFEITTANVVYYVGENVVNPSSPSPNNSVLTSGVGADVARMWEIAIQHALMPVIPKGSSVGTGTNLHRDISVSISVSNCQIQENVDISTVYQIFPDEVLGSGQFGIVYGGKHRKTGRDVAIKIIDKLRFPTKQESQLRNEVAILQNLHHPGVVNLECMFETPERVFVVMEKLHGDMLEMILSSEKGRLPEHITKFLITQILVALRHLHFKNIVHCDLKPENVLLASADPFPQVKLCDFGFARIIGEKSFRRSVVGTPAYLAPEVLRNKGYNRSLDMWSVGVIIYVSLSGTFPFNEDEDIHDQIQNAAFMYPPNPWKEISHEAIDLINNLLQVKMRKRYSVDKTLSHPWLQDYQTWLDLRELECKIGERYITHESDDLRWEKYAGEQGLQYPTHLINPSASHSDTPETEETEMKALGERVSIL
notes: whole, on cells
binding result: no binding
